Test results reported in paper PMC7949032, “The KH domain facilitates the substrate specificity and unwinding processivity of DDX43 helicase”.
Numbering of substitutions follows the chain as printed.

Key:
[1] = molecular target: T1, DDX43 KH-126 (UniProt Q9NXZ2); assay: filter binding; settings: EMSA: 40 mM Tris pH 8.0, 0.5 mM MgCl2, 15 mM NaCl, 0.01% NP-40, 0.1 mM DTT, 1 mg/ml BSA, no ATP, ice 30 min (Fig 2A legend: RT); filter binding: 25 mM Tris pH …
T1 sequence: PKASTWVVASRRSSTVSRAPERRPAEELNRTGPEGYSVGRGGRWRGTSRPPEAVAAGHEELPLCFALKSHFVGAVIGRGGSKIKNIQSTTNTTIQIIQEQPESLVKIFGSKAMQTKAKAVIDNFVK

[2] = molecular target: DDX43 KH-domain protein KH-126 (human) (UniProt Q9NXZ2); assay: SEC; Sephacryl S-100 high-resolution column calibrated with molecular mass standards; buffer A (25 mM Tris pH 8.0, 0.15 M NaCl, 100 uM Tween 20, 10% glycerol), 0.5 ml/min
[3] = molecular target: T2, DDX43 KH-89 (UniProt Q9NXZ2 54-142); assay: NMR HSQC titration; negligible shift changes; EMSA: 40 mM Tris pH 8.0, 0.5 mM MgCl2, 15 mM NaCl, 0.01% NP-40, 0.1 mM DTT, 1 mg/ml BSA, no ATP, ice 30 min (Fig 2A legend: RT); filter binding: 25 mM Tris pH 7.5, 25 mM KOAc, 1 mM Mg(OAc)2, 1 mM DTT, 0.1 mg/ml BSA, 37 C; NMR: 25 mM Hepes pH 7.4, 250 mM NaCl, 5% D2O, temperature not stated; settings: protein: recombinant; His removed by thrombin for NMR; 15N
T2 sequence: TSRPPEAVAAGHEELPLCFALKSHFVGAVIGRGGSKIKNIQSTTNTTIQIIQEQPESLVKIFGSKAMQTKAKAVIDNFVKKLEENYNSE

[4] = molecular target: T2, DDX43 KH-89; assay: NMR HSQC titration; EMSA: 40 mM Tris pH 8.0, 0.5 mM MgCl2, 15 mM NaCl, 0.01% NP-40, 0.1 mM DTT, 1 mg/ml BSA, no ATP, ice 30 min (Fig 2A legend: RT); filter binding: 25 mM Tris pH 7.5, 25 mM KOAc, 1 mM Mg(OAc)2, 1 mM DTT, 0.1 mg/ml BSA, 37 C; NMR: 25 mM Hepes pH 7.4, 250 mM NaCl, 5% D2O, temperature not stated; settings: protein: recombinant; His removed by thrombin for NMR; 15N
[5] = molecular target: T3, DDX43 KH-89 A81G (UniProt Q9NXZ2 54-142, A81G); assay: NMR HSQC titration; fewer residues shifted, larger shifts than WT; EMSA: 40 mM Tris pH 8.0, 0.5 mM MgCl2, 15 mM NaCl, 0.01% NP-40, 0.1 mM DTT, 1 mg/ml BSA, no ATP, ice 30 min (Fig 2A legend: RT); filter binding: 25 mM Tris pH 7.5, 25 mM KOAc, 1 mM Mg(OAc)2, 1 mM DTT, 0.1 mg/ml BSA, 37 C; NMR: 25 mM Hepes pH 7.4, 250 mM NaCl, 5% D2O, temperature not stated; settings: protein: recombinant; tags: His cleaved by thrombin
T3 sequence: T2 sequence with A28G

[6] = molecular target: T2, DDX43 KH-89; assay: EMSA; EMSA: 40 mM Tris pH 8.0, 0.5 mM MgCl2, 15 mM NaCl, 0.01% NP-40, 0.1 mM DTT, 1 mg/ml BSA, no ATP, ice 30 min (Fig 2A legend: RT); filter binding: 25 mM Tris pH 7.5, 25 mM KOAc, 1 mM Mg(OAc)2, 1 mM DTT, 0.1 mg/ml BSA, 37 C; NMR: 25 mM Hepes pH 7.4, 250 mM NaCl, 5% D2O, temperature not stated; settings: protein: recombinant; His removed by thrombin for NMR; 15N; label: 5'-32P
[7] = molecular target: T4, DDX43 full-length WT (UniProt Q9NXZ2 1-648); assay: EMSA; no ATP; preferred RNA; EMSA: 40 mM Tris pH 8.0, 0.5 mM MgCl2, 15 mM NaCl, 0.01% NP-40, 0.1 mM DTT, 1 mg/ml BSA, no ATP, ice 30 min (Fig 2A legend: RT); filter binding: 25 mM Tris pH 7.5, 25 mM KOAc, 1 mM Mg(OAc)2, 1 mM DTT, 0.1 mg/ml BSA, 37 C; NMR: 25 mM Hepes pH 7.4, 250 mM NaCl, 5% D2O, temperature not stated; settings: protein: recombinant; (pET28a); label: 5'-32P; 13 bp, 5' overhang 15 nt on strand 1
[8] = molecular target: T4, DDX43 full-length WT; assay: EMSA; no ATP; preferred DNA; EMSA: 40 mM Tris pH 8.0, 0.5 mM MgCl2, 15 mM NaCl, 0.01% NP-40, 0.1 mM DTT, 1 mg/ml BSA, no ATP, ice 30 min (Fig 2A legend: RT); filter binding: 25 mM Tris pH 7.5, 25 mM KOAc, 1 mM Mg(OAc)2, 1 mM DTT, 0.1 mg/ml BSA, 37 C; NMR: 25 mM Hepes pH 7.4, 250 mM NaCl, 5% D2O, temperature not stated; settings: protein: recombinant; (pET28a); label: 5'-32P; 20 bp, 3' overhang 25 nt on strand 1

T4 sequence (Q9NXZ2 whole entry): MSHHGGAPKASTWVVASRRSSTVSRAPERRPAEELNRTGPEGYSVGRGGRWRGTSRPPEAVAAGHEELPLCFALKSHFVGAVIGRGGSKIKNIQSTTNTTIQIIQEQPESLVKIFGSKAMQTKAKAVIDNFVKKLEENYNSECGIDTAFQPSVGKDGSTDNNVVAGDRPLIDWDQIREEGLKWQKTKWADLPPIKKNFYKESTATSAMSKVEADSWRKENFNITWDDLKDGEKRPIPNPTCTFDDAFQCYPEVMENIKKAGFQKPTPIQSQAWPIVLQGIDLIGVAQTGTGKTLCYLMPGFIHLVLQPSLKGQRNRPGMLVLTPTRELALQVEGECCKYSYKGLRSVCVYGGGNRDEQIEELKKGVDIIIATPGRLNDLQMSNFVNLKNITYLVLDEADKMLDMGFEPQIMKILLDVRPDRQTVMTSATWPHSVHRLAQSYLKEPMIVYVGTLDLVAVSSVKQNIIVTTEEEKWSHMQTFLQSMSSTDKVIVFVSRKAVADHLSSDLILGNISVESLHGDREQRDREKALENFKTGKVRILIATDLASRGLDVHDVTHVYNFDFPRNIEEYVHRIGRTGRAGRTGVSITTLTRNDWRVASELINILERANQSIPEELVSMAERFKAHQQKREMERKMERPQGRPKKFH

“TTTTTTTTTTTTTTTGGTGATGGTGTATTGAGTGGGATGCATGCA / TGCATGCATCCCACTCAATACACCATCACCTTTTTTTTTTTTTTT [fork dsDNA 30/15]” was tested, and the Kd [1] was 1.29 µM.

In the case of “GAGCTACCAGCTACCCCGTATGTCAGAGAG [ssDNA 30-mer]”, the Kd [1] is reported as 1.41 µM.

In the case of “UUUUUUUUUUUUUUUGGUGAUGGUGUAUUGAGUGGGAUGCAUGCA / UGCAUGCAUCCCACUCAAUACACCAUCACCUUUUUUUUUUUUUUU [forked dsRNA 30/15]”, the Kd [1] is reported as 2.5 µM.

Molecule “DDX43 KH-domain protein KH-126 (from UniProt Q9NXZ2 67-128) (domain or fragment)” has a stoichiometry N [2] of 2.

UUUUUUUUUUUUUUUUUUUUUUUUUUUUUU [rU30] showed a Kd [1] of 1.48 µM.

For “GAGCUACCAGCUACCCCGUAUGUCAGAGAG [ssRNA 30-mer]”, the Kd [1] was 3.01 µM.

With TTTTTTTTTTTTTTTTTTTTTTTTTTTTTT [dT30] the Kd [1] was 2.45 µM.

B1: dG5 (ssDNA)
DNA: GGGGG
B1: no binding [3].

B2: TGTGT (ssDNA)
DNA: TGTGT
Work on B2 yielded a Kd [4] of 78 µM.

B3: dT5 (ssDNA)
DNA: TTTTT
B3 was tested, and the Kd [4] was 1500 ± 290 µM and the binding result [5] was “binds”.

B4: ssRNA 30-mer (ssRNA)
RNA: GAGCUACCAGCUACCCCGUAUGUCAGAGAG
B4: binds [6].

B5: dT10 (ssDNA)
DNA: TTTTTTTTTT
For B5, the Kd [4] was 174 ± 90 µM.

B6: ssDNA 30-mer (ssDNA)
DNA: GAGCTACCAGCTACCCCGTATGTCAGAGAG
B6: binds [6].

B7: 13-bp dsRNA 5' UUGU-repeat tail (dsRNA)
RNA 1: UGUUGUUGUUGUUGUACCGUAAAGACGC
RNA 2: GCGUCUUUACGGU
B7: binds [7].

B8: CTCTC (ssDNA)
DNA: CTCTC
B8: binds [4].

B9: CGCGC (ssDNA)
DNA: CGCGC
For B9, the Kd [4] was 266 µM.

B10: 20-bp dsDNA 3' TTGT-repeat tail (dsDNA)
DNA 1: CCACTCAATACACCATCACCTTGTTGTTGTTGTTGTTGTTGTTGT
DNA 2: GGTGATGGTGTATTGAGTGG
B10: binds [8].

B11: rU5 (ssRNA)
RNA: UUUUU
Work on B11 yielded a Kd [4] of 1800 ± 200 µM.

B12: dA5 (ssDNA)
DNA: AAAAA
B12: no binding [3].

B13: GTTGT (ssDNA)
DNA: GTTGT
B13 was tested, and the Kd [4] was 44 µM.

B14: dC5 (ssDNA)
DNA: CCCCC
Molecule B14 has a Kd [4] of 2100 ± 400 µM.
